Measurements published in publication PMC5869772, “Quantitative profiling of BATF family proteins/JUNB/IRF hetero-trimers using Spec-seq” (BMC Molecular Biology, 2018).

Experiments:
[1] = test system: BATF3;JUNB (human;human); assay: Spec-seq (EMSA); settings: no IRF; 100 nM BATFx-JUNB, 150 nM IRF, 1 uM dsDNA library; 50 mM K acetate, 20 mM Tris-acetate, 10 mM Mg acetate, 100 ug/ml BSA, pH 7.9 (25 C), 10% glycerol; 30 min on …
[2] = test system: BATF2 (bZIP);JUNB (human;human); assay: Spec-seq (EMSA); settings: 100 nM BATFx-JUNB, 150 nM IRF, 1 uM dsDNA library, 50 mM K acetate, 20 mM Tris-acetate, 10 mM Mg acetate, 100 ug/ml BSA, pH 7.9 (25 C), 10% glycerol, 30 min on …
[3] = test system: BATF;JUNB (human;human); assay: Spec-seq (EMSA); settings: no IRF; 100 nM BATFx-JUNB, 150 nM IRF, 1 uM dsDNA library; 50 mM K acetate, 20 mM Tris-acetate, 10 mM Mg acetate, 100 ug/ml BSA, pH 7.9 (25 C), 10% glycerol; 30 min on …
[4] = test system: BATF2 (bZIP);JUNB;IRF8 (human;human;mouse); assay: Spec-seq (EMSA); settings: reference; 100 nM BATFx-JUNB, 150 nM IRF, 1 uM dsDNA library; 50 mM K acetate, 20 mM Tris-acetate, 10 mM Mg acetate, 100 ug/ml BSA, pH 7.9 (25 C), 10% glycerol; 30 min on …
[5] = test system: BATF;JUNB;IRF8 (human;human;mouse); assay: Spec-seq (EMSA); settings: reference; 100 nM BATFx-JUNB, 150 nM IRF, 1 uM dsDNA library; 50 mM K acetate, 20 mM Tris-acetate, 10 mM Mg acetate, 100 ug/ml BSA, pH 7.9 (25 C), 10% glycerol; 30 min on …
[6] = test system: BATF2 (bZIP);JUNB;IRF4 (human;human;human); assay: Spec-seq (EMSA); settings: reference; 100 nM BATFx-JUNB, 150 nM IRF, 1 uM dsDNA library; 50 mM K acetate, 20 mM Tris-acetate, 10 mM Mg acetate, 100 ug/ml BSA, pH 7.9 (25 C), 10% glycerol; 30 min on …
[7] = test system: BATF3;JUNB;IRF4 (human;human;human); assay: Spec-seq (EMSA); settings: reference; 100 nM BATFx-JUNB, 150 nM IRF, 1 uM dsDNA library; 50 mM K acetate, 20 mM Tris-acetate, 10 mM Mg acetate, 100 ug/ml BSA, pH 7.9 (25 C), 10% glycerol; 30 min on …
[8] = test system: BATF3;JUNB;IRF8 (human;human;mouse); assay: Spec-seq (EMSA); settings: reference; 100 nM BATFx-JUNB, 150 nM IRF, 1 uM dsDNA library; 50 mM K acetate, 20 mM Tris-acetate, 10 mM Mg acetate, 100 ug/ml BSA, pH 7.9 (25 C), 10% glycerol; 30 min on …
[9] = test system: BATF;JUNB;IRF4 (human;human;human); assay: Spec-seq (EMSA); settings: reference; 100 nM BATFx-JUNB, 150 nM IRF, 1 uM dsDNA library; 50 mM K acetate, 20 mM Tris-acetate, 10 mM Mg acetate, 100 ug/ml BSA, pH 7.9 (25 C), 10% glycerol; 30 min on …
[10] = molecular target: T1, IRF8 (full length mouse) (mouse, UniProt P23611 1-424); assay: native gel or EMSA; complex formed on a dsDNA library: 100 nM BATFx-JUNB heterodimer, 150 nM IRF protein, 1 uM dsDNA library in 1x NEB Cutsmart buffer (pH 7.9) with 10% glycerol, 30 min on ice; native 9% PAGE in Tris/Glycine at 4 °C; settings: both partners purified
T1 construct: IRF8 (interferon regulatory factor 8), mouse, full length; also called IRFx; source: E. coli BL21(DE3), purified (Strep-Tactin Superflow), strep-tag cleaved off by thrombin; not shown: Strep-tag, N-terminal, cleaved
T1 sequence (looked up): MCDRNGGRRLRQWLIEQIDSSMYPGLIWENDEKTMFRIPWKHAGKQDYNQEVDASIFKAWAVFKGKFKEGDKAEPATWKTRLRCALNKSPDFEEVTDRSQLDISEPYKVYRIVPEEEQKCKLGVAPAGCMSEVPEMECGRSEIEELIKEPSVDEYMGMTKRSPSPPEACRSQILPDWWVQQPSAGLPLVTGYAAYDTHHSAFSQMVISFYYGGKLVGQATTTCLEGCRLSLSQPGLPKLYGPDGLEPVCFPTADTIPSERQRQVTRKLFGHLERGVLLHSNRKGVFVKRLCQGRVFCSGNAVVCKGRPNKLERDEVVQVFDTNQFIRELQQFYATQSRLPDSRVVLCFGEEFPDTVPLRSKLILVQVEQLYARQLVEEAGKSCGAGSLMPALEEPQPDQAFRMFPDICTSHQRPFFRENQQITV

[11] = molecular target: T2, IRF4 (full length human) (human, UniProt Q15306 1-451); assay: as above; settings: both partners purified
T2 construct: IRF4 (interferon regulatory factor 4), human, full length; also called IRFx; source: E. coli BL21(DE3), purified (Strep-Tactin Superflow), strep-tag cleaved off by thrombin; not shown: Strep-tag, N-terminal, cleaved
T2 sequence (looked up): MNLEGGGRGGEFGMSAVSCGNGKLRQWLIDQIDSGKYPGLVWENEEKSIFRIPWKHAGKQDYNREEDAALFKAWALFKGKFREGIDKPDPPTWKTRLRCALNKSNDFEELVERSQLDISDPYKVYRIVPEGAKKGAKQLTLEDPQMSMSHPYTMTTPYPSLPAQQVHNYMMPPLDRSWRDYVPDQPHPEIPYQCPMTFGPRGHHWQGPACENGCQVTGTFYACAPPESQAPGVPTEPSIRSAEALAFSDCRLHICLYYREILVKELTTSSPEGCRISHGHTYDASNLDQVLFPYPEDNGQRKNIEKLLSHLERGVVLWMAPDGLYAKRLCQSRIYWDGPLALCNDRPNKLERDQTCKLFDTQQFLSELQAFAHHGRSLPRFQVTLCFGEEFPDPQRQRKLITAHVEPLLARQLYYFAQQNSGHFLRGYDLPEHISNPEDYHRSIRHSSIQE

Row | Molecule | binding signal (kT (-ln bound/unbound)) [3] | binding signal (kT (-ln bound/unbound)) [2] | binding result [10] | binding result [11] | also measured
1 | CRE (TGACGTCA) | -1.05 | – | – | – | binding signal (kT (-ln bound/unbound)) [1]: -1.75; binding signal (kT (-ln bound/unbound)) ([2]; no IRF): -1.32
2 | TRE-0sp (TGAGTCAT) | -1.05 | -0.903 | – | – | binding signal (kT vs TRE-0sp) [4]: 0; binding signal (kT vs TRE-0sp) [5]: 0; binding signal (kT vs TRE-0sp) [6]: 0; binding signal (kT vs TRE-0sp) [7]: 0; binding signal (kT vs TRE-0sp) [8]: 0; binding signal (kT vs TRE-0sp) [9]: 0
3 | TRE-1sp (ATGAGTCA) | -1.25 | -1.01 | – | – | –
4 | BATF–JUNB hetero-dimer (complex, human, BATF, human, full length; Heterodimer formed by co-expression before purification; also called BATFx–JUNB; source: SHuffle T7 Express E. coli, co-expressed, purified (Ni-NTA agarose), mCherry cleaved off with ProTEV Plus; not shown: mCherry, N-terminal, cleaved) chain 1: MPHSSDSSDSSFSRSPPPGKQDSSDDVRRVQRREKNRIAAQKSRQRQTQKADTLHLESEDLEKQNAALRKEIKQLTEELKYFTSVLNSHEPLCSVLAASTPSPPEVVYSAHAFHQPHVSSPRFQP chain 2: KMNHVTPPNVSLGATGGPPAGPGGVYAGPEPPPVYTNLSSYSPASASSGGAGAAVGTGSSYPTTTISYLPHAPPFAGGHPAQLGLGRGASTFKEEPQTVPEARSRDATPPVSPINMEDQERIKVERKRLRNRLAATKCRKRKLERIARLEDKVKTLKAENAGLSSTAGLLREQVAQLKQKVMTHVSNGCQLLLGVKGHAF | – | – | binds | binds | –
5 | BATF2–JUNB hetero-dimer (complex, human, Heterodimer formed by co-expression before purification; also called BATFx–JUNB; source: SHuffle T7 Express E. coli, co-expressed, purified (Ni-NTA agarose), mCherry cleaved off with ProTEV Plus; not shown: mCherry, N-terminal, cleaved) chain 1: MHLCGGNGLLTQTDPKEQQRQLKKQKNRAAAQRSRQKHTDKADALHQQHESLEKDNLALRKEIQSLQAELAWWSRTLHVHERLCPMDCASCSAPGLLGCWDQAEGLLGPGPQGQHGCREQLELFQTPGSCYPAQPLSPGPQP chain 2: KMNHVTPPNVSLGATGGPPAGPGGVYAGPEPPPVYTNLSSYSPASASSGGAGAAVGTGSSYPTTTISYLPHAPPFAGGHPAQLGLGRGASTFKEEPQTVPEARSRDATPPVSPINMEDQERIKVERKRLRNRLAATKCRKRKLERIARLEDKVKTLKAENAGLSSTAGLLREQVAQLKQKVMTHVSNGCQLLLGVKGHAF | – | – | binds | binds | –
